In patent US5910570A, “Cloned DNA encoding a UDP-GalNAc: polypeptide N-acetylgalactosaminy-ltransferase” (Pharmacia & Upjohn Company, priority 1997, dated 1999):
“And” between values parts separate entries of the source, which are not always exact repeats. Identical values can stand only once.

What was measured:
[1] = target: T1, cloned soluble GalNAc-transferase (GalNAcTs) (Bos taurus, UniProt Q07537); experiment: Kinetic parameters with the cloned soluble GalNAc-transferase (Bond Elut assay); format: biochemical, bovine; details: read-out: Km for UDP-GalNAc
T1 construct: The plasmid pAC373-GalNAcT (Homa et al., 1993) which contains the full length GalNAc-transferase gene; honeybee melittin signal peptide (21 aa) (N, cleaved yes); made in house; host or cells: Sf9 cells / baculovirus, purified from serum-free culture medium on apomucin-Sepharose
T1 sequence (Q07537 48-559 limits assumed): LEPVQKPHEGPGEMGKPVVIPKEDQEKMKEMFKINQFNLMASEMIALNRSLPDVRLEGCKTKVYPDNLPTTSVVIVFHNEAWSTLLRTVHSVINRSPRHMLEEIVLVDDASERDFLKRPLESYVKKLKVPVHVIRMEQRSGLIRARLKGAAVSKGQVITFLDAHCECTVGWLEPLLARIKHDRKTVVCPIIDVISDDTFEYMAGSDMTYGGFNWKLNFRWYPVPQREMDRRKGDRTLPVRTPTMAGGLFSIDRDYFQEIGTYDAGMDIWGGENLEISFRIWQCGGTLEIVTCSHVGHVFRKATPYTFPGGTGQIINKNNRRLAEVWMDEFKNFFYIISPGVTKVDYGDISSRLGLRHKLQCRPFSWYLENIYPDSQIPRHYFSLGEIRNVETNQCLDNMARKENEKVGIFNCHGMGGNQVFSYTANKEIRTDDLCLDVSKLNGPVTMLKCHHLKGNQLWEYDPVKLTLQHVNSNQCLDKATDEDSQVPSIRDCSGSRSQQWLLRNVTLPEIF

[2] = tested on: GalNAc-transferase purified from porcine submaxillary glands; details: Wang et al., 1992; read-out: Km for UDP-GalNAc; cited from earlier work
[3] = target: T2, bovine colostrum GalNAc-transferase (Bos taurus, UniProt Q07537); design: host or cells: bovine colostrum; details: Elhammer and Kornfeld, 1986; read-out: Km for UDP-GalNAc; cited from earlier work
T2 sequence (Q07537 41-559 limits assumed): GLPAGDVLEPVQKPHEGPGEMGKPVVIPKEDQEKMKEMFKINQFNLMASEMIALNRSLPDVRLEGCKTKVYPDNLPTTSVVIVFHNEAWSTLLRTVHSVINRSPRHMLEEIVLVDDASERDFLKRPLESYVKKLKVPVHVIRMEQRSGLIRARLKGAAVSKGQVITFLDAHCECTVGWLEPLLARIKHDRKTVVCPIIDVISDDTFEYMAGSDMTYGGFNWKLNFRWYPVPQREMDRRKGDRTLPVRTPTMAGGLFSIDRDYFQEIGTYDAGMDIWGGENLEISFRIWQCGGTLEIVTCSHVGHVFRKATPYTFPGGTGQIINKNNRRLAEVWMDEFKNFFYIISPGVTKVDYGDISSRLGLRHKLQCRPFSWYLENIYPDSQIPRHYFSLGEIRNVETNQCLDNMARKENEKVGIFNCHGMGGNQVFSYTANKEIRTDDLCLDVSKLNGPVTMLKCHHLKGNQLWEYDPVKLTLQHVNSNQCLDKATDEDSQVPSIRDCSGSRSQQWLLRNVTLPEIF

[4] = target: T2, bovine colostrum GalNAc-transferase; experiment: Transfer of N-acetylgalactosamine to protein acceptors; format: biochemical; design: from tissue; host or cells: bovine colostrum; details: for acceptor activity (in words): native or reduced and carboxymethylated state
Procedure: The above conclusions and the predictions of the specificity algorithm are validated experimentally by studying the ability of bovine colostrum GalNAc-transferase to transfer N-acetylgalactosamine to a variety of acceptors, both native proteins and synthetic acceptor peptides. The transfer of N-acetylgalactosamine to protein acceptors is assayed as described by Elhammer and Kornfeld, 1986, with minor modifications. The concentration of UDP-GalNAc is saturating in all assays; a Km of 8 μM is reported for bovine colostrum GalNAc-transferase (Elhammer and Kornfeld, 1986).
The transfer of N-acetylgalactosamine to protein acceptors was assayed
under standard conditions (see Material and Methods). The acceptor
concentration was 65 μM, the enzyme concentration approximately 65
mU/ml and assay time was 60 minutes. The transfer to both native and
reduced-carboxymethylated acceptors was assayed.

CC(=O)N[C@H]1[C@@H](OP(=O)(O)OP(=O)(O)OC[C@H]2O[C@@H](n3ccc(=O)[nH]c3=O)[C@H](O)[C@@H]2O)O[C@H](CO)[C@H](O)[C@@H]1O [UDP-GalNAc, UDP-N-acetylgalactosamine]
Km [1]: ~1.7 µM and 1.7 µM
Km [2]: 6 µM
Km [3]: 8 µM

Bovine cytochrome C: protein with one Ser and eight Thr residues but no predicted potential sites
Product formed, Native ([4]; native acceptor 65 μM, enzyme approx. 65 mU/ml, 60 minutes): < 0.1 nmol/min/mg
acceptor activity (in words) ([4]; listed as bovine cytochrome C): not an acceptor
acceptor activity (in words) ([4]; listed as cytochrome C): completely inactive as an acceptor
Product formed, Reduced and carboxymethylated ([4]; reduced and carboxymethylated acceptor 65 μM, enzyme approx. 65 mU/ml, 60 minutes): < 0.1 nmol/min/mg
